Results from US20130022605A1 (published 2013).
Residue numbers refer to the chain shown, from its start.

B1: TAR2m-19 (other)
chain: EVQLLESGGGLVQPGGSLRLSCAASGFTFRKYDMHWVRQAPGKGLEWVSTISPSGRRTYYADSVKGRFTISRDNSKNTLYLQMNSLRAEDTAVYYCAENLDQVLSFDYWGQGTLVTVSS
notes: anti-mouse TNFR1 dAb
B2: TAR2m-21 (other)
chain: EVQLLESGGGLVQPGGSLRLSCAASGFTFTRYSMGWVRQAPGKGLEWVSRIDSYGRGTYYADSVKGRFTISRDNSKNTLYLQMNSLRAEDTAVYYCAKISQFGSNAFDYWGQGTLVTVSS
B3: TAR2m-21-23 (other)
VH: B2 chain with T30N, V37L, A61E, S63P, T69S, L115Q
B4: TAR2m-21-07 (other)
chain: B2 chain with T30S, Y32C, V37L, Q101K
B5: TAR2m-21-43 (other)
chain: B2 chain with V37L, Y60D
B6: TAR2m-21-48 (other)
chain: B2 chain with V12I, V37L, Y60D, A61T, K76R
B7: TAR2m-21-10 (other)
chain: B2 chain with V37L
B8: TAR2m-21-06 (other)
chain: B2 chain with V37I
B9: TAR2m-21-17 (other)
chain: B2 chain with L115V
B10: TAR2h-44 (other)
chain: EVQLLESGGGLVQPGGSLRLSCAASGFTFLQYPMVWVRQAPGKGLEWVSSILAPGGPTYYADSVKGRFTISRDNSKNSLYLQMNSLRAEDTAVYYCAKHPTHTPHPNFDYWGQGTLVTVSS
notes: anti-human TNFR1 dAb
B11: TAR2m21-23 dimer (other)
VH: EVQLLESGGGLVQPGGSLRLSCAASGFTFNRYSMGWLRQAPGKGLEWVSRIDSYGRGTYYEDPVKGRFSISRDNSKNTLYLQMNSLRAEDTAVYYCAKISQFGSNAFDYWGQGTQVTVSSC
B12: HEL4 (other)
VH: EVQLLESGGGLVQPGGSLRLSCAASGFRISDEDMGWVRQAPGKGLEWVSSIYGPSGSTYYADSVKGRFTISRDNSKNTLYLQMNSLRAEDTAVYYCASALEPLSEPLGFWGQGTLVTVSS
notes: VH dAb
B13: TAR2m-20 (other)
chain: EVQLLESGGGLVQPGGSLRLSCAASGFTFGSYSMSWVRQAPGKGLEWVSGIDNGGHSTYYADSVKGRFTISRDNSKNTLYLQMNSLRAEDTAVYYCAKRSSGLPFPFDYWGQGTLVTVSS
notes: anti-mouse TNFR1 dAb
B14: TAR2h-131-8 (other)
chain: EVQLLESGGGLIQPGGSLRLSCAASGFTFAHETMVWVRQAPGKGLEWVSHIDRVGQDTYYADSVKGRFTISRDNSKNTLYLQMNSLRAEDTAVYYCAKLPKRGPWFDYRGQGTLVTVSS
notes: anti-human TNFR1 dAb
B15: TAR2h-15-8 (other)
chain: EVRLLESGGGLVQPGGSLRLSCVASGFTFGKSTMTWVRQAPGKGLEWVSHISDDGNSTYYADSVKGRFTISRDNSKNTLYLQMNSLRAEDTAVYYCAKVPILAPRNLFDYWGQGTLVTVSS
notes: anti-human TNFR1 dAb
B16: TAR2h-35-4 (other)
chain: EVQLLESGGGLVQPGGSLRLSCAASGFTFDAYNMFWFRQAPGKGPEWVSAIGPSGRETYYADSVKGRFTITRDNSKNTLYLQMNSLRAEDTAVYYCAKRYPDFDYWGQGTLVTVSS
notes: anti-human TNFR1 dAb

What was measured:
mouse TNFR1 = molecular target: T1, mouse TNFR1 (mouse, UniProt P25118 30-212, limits assumed); assay: receptor binding assay
T1 construct: also called murine TNFR1; biotinylated murine TNFR1
T1 sequence: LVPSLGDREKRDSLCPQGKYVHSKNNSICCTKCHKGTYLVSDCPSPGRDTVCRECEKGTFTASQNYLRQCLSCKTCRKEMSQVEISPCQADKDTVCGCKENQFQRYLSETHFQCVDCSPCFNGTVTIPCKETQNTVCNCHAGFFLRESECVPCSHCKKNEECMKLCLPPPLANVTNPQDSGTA

[1] = molecular target: T2, mouse TNFR1 on L929 cells (mouse, UniProt P25118 30-454); assay: cell-based or functional assay
T2 sequence (looked up): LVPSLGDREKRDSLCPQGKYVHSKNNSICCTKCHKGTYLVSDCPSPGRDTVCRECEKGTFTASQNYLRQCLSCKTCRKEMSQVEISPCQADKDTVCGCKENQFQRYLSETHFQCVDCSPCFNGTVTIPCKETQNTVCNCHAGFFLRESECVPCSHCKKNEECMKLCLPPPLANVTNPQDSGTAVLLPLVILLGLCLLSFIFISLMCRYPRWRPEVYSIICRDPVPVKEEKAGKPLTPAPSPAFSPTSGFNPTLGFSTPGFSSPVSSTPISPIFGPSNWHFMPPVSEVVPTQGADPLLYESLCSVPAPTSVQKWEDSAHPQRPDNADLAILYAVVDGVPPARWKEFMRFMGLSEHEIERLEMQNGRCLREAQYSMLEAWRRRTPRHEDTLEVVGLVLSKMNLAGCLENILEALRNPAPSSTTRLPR

[2] = molecular target: T3, TNF receptor 1 Fc fusion protein (R&D Systems) (human, UniProt P19438 30-211, limits assumed); assay: receptor binding assay
T3 construct: bought; also called recombinant TNF receptor 1 (p55); TNFR1-Fc; not shown: Fc part of the bought fusion protein; not described
T3 sequence: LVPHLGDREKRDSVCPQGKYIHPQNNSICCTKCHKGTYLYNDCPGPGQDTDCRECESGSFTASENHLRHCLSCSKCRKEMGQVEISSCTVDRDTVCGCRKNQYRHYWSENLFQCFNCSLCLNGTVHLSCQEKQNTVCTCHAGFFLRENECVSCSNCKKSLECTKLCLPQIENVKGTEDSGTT

[3] = molecular target: T4, human TNFR1 on HeLa cells (human, UniProt P19438 30-455); assay: cell-based or functional assay
T4 sequence (looked up): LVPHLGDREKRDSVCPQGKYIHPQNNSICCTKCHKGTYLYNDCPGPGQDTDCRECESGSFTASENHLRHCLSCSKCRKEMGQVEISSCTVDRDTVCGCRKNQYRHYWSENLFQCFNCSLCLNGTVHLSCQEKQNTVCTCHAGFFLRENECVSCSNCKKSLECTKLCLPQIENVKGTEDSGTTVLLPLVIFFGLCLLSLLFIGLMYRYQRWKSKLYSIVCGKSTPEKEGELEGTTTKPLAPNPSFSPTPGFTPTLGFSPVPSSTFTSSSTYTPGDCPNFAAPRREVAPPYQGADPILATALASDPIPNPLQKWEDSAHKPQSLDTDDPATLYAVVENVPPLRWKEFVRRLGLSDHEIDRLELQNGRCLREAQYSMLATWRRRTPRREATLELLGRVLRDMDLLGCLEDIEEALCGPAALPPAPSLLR

[4] = molecular target: T2, mouse TNFR1 on L929 cells; assay: cell-based or functional assay; remark: listed apart in the source
hen egg lysozyme = molecular target: T5, hen egg lysozyme (hen, UniProt P00698 19-147); assay: selection from a dAb library
T5 construct: also called HEL

[5] = molecular target: T6, human TNFR1 (human p55 TNF receptor) (human, UniProt P19438 30-211, limits assumed); assay: SPR on biotinylated TNFR1, competition with chimeric TNFR1
T6 construct: also called TAR2; human TNF receptor 1
T6 sequence: T3 sequence
Description: This example describes a method that was used to determine the domain specificity of dAbs that bind TNFR1. […] If the dAb is pre-incubated and equilibrated with a chimeric molecule that comprises the domain(s) of TNFR1 that the particular dAb binds, then flow of this mixture over the TNFR1 surface will produce a smaller SPR signal relative to the dAb alone.
Once the optimum anti-TNFR1 dAb concentration was determined, anti-TNFR1 dAb/chimeric TNFR1 mixes were set up. Mixes were set up such that the final concentration of anti-TNFR1 dAb was identical to the optimal concentration determined previously. Reactions were typically set up in 100 μl volumes containing 50 microliters of a 2× concentrate of anti-TNFR1 dAb, 40 microliters of Biacore buffer and 10 microliters of neat, purified chimeric protein. Typical concentrations for the final mix were about 10-100 μM of chimeric protein and about 10-100 nM anti-TNFR1 dAb. Mixtures were allowed to equilibrate for 30 minutes at room temperature.

T5 sequence (P00698 19-147): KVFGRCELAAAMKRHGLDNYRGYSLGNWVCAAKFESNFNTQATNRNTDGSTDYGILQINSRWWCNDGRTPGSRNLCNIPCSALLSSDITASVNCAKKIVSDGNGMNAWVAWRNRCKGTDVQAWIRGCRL

| Binder | L929 Cell Assay, Activity (IC50) [1] [nM] | other results |
| --- | --- | --- |
| B1 | 10000 | IC50 (mouse TNFR1): 2000 nM |
| B2 | 400 | – |
| B3 | 1 | – |
| B4 | 10 | – |
| B5 | 6 | – |
| B6 | 6 | – |
| B7 | 30 | – |
| B8 | 100 | – |
| B9 | 300 | – |
| B10 | – | IC50 [2]: 10 nM; HeLa IL-8 Cell Assay, Activity (IC50) [3]: 300 nM |
| B11 | – | fold decrease in ND50 of the dimer against the monomer [4]: ~10 fold |
| B12 | – | binding result (hen egg lysozyme): binds |
| B13 | – | IC50 (mouse TNFR1): 150 nM |
| B14 | – | binding result [5]: binds |
| B15 | – | binding result [5]: binds |
| B16 | – | binding result [5]: binds |
